In the DeepSol protein solubility set:

Experiment: soluble on expression in E. coli; label from the status in PepcDB or PDB records
With “MSLFPILETDRLILRQITDQDAEAIFACFSNDEVTRYYGLENMESIEQAISMIQTFAALYQEKRGIRWGIERRDTKELIGTIGFHALAQKHRRAEIGYEIIPEHWRNGFASEVISKVVSYGFSALGLSRIGAVVFTDNEASNRLLLKMGFQKEGVLRQYMYSKWDSIEGGSHHHHHH” the “soluble on expression in E. coli” value was “soluble”.
In the case of “MSLGEWKDELIHNADKFDFPIFTPYYELTDEQRRTLWEGNQYFHGINDFFKMLEENQYKIQYRVMLARYRGKTICPKCHGTRLKPEAGYVRVDGKSISELVDLPITELKEFFDHLNLNEHDSNVARRILIEINSRIRFLIDVGLGYLTLNRLSNSLSGGESQRINLATSLGSSLVGSLYILDEPSIGLHSRDTDRLIRVLRQLQELGNTVVVVEHDEEIIRAADYIIDIGPNAGRLGGEVVYQGDMKDLKKGSNSHTVRYLLGEEEIPVPEHRRPWNNYIELTGARENNLKGVNVKFPLNVMTVVTGVSGSGKSTLVRDIFYRALKRELDECSDRPGEFSSISGSLRDLRNIEFVDQNPIGKSSRSNPVTYIKAYDEIRKLWAEQPLAKQMGYTAGHFSFNSEGGRCEECKGEGTITVEMQFMADLVLECESCHGKRFKADTLEVKFQDKNIYDVLEMTVNQAVEFFTEHGQKKIVKRLLPLQDVGLGYIKLGQSSSTLSGGENQRVKLAFYLSQEKADPTLFIFDEPTTGLHFHDIRKLLDAFDALIRRGHSIVIIEHNMDVIKCADYVIDLGPEGGDKGGNIVAVGTPEEVAACGASYTGQFLKEKLAEGHHHHHH”, the “soluble on expression in E. coli” value is reported as “not soluble”.
In the case of “MSLGFVPVRGLHHFAYRCRDAEETRQFYEGILGLPLVHVVRAEEVPSTGEYCPYMHLFFEMKDGSCVAFFDLDDDTVPLPSSNTPVWAQHLALRVDSVAAVEEAKRKLEQAGVKVLGPVDHDGFVCSIYFFDPNGVRLELTTDTADSTEMARYRREARPGCDAWTLEKSLRRATGQGSVLREGHHHHHH”, the “soluble on expression in E. coli” value is reported as “not soluble”.
For “MSLGGDRFYDLISAVHKSIRGSAPDAALYWYARIITAGGDPLYVARRLLAIASEDIGNADPRAMQVALSAWDCFTRVGAAEGERAIAQAIVYLAVAPKSNAVYQAFNAAKALAKQAPDYDVPRHLTNAPTQLLKELGNHAEYRYAHDEPNAYAAGENYFPEPLKDTRFYFPGARGMEIKIKEKLDWLRNLDQQSENIREGHHHHHH”, the “soluble on expression in E. coli” value was “soluble”.
In the case of “MSLGHAKEVKIGVILGFTGPIESLTPSMADGAELAMKEVTDSGLLLDGATVTSVRADSTCVDAAAATAAAERLVTSDKVDGIMGADCSGVTGAILSNVAVPNGVVMISPSATSPALSTADDNGLFFRTAPSDARQGVVMTEVLMEEGIKEVALTYTNNDYGKGLADSFQAAFEAAGGTVTISAAHEDGKADYSAEVGALAAAGGDRLVVAGYVDQGGSGIVRSAIDSGAFDTFHFPDGMIGAKLEENFGDEIEGSSGQHPGTDSPGVAKFSEMVGGAFDSTSPFTPEAYDAAALIMLAMQAANSKDSGDYKDHVMHVANAPGEKIYPGELAKALQIIKDGGEVDYVGATAVELIGPGESAGNYRQITIEGGKITTAKFREGHHHHHH”, the “soluble on expression in E. coli” value is reported as “soluble”.
With “MSLGKATGFMEYDRIPSPGRDPKSRTRDWNEYSLPMPVADLTLQAARCMDCGVPFCSVGMEIKNGVSGCPLHNLIPEWNDAVYRGDWYEALQLLLKTNNFPEFTGRICPAPCEGGCTVAISEPAVGIKSIEKAIIDRGFEEGWIKPQPPKKRTGKRIAVIGSGPAGLACADQLNKAGHSVTVIEKSDRIGGLLMYGIPTMKLEKEQVTRRVNLMAEEGIEFVTGVAAGTDVTFAELRAEYDSIVLATGAGNARDIPLAGRDAAGIHFAVPYLTQSTRDNLDNGGVQTLSAKDKNVVIIGGGDTGADCVATALRQGAKSIYQFGIQDKLPELRNGENPWPQYPRVFKMDYAHEEAEAVYGRDPREYLINTTSFEKDAAGNLVGLHTVEVTEDKETRQYTPVEGSEKYFEVDMVLIAIGFSGTTEDIFTNFGVGKTERHTIDAAKGFYRTSEEGVFACGDARHGQSLVVTAIAEGREAAREVDFYLMGETFLEGHHHHHH” the “soluble on expression in E. coli” value was “soluble”.
With “MSLGKKELIGFQVGVRESTQSWHELLVEAKTRGLKIAPEIAVGDGALGFWKALDEVFPATRHQRCWVHKTANILNKVAVSVQASMKKDLREVYLASNRASAEVAIDVFAEKYGAKYDKAVECLTKDRDAMLAFYEFPAEHWDHLRTTNPIESVFATVRHRTVRTKGSLSSTTAKLMVFKLLCAASKTWRRLKGTNQLPKVSAGVRFENGIEEGHHHHHH” the “soluble on expression in E. coli” value was “not soluble”.
